B1: mCherry-KANK1 wild type (human full-length KANK1) [human] / GFP-talin1-cBAK [mouse] (parent complex)
chain 1: MAHTTKVNGSASGKAGDILSGDQDKEQKDPYFVETPYGYQLDLDFLKYVDDIQKGNTIKRLNIQKRRKPSVPCPEPRTTSGQQGIWTSTESLSSSNSDDNKQCPNFLIARSQVTSTPISKPPPPLETSLPFLTIPENRQLPPPSPQLPKHNLHVTKTLMETRRRLEQERATMQMTPGEFRRPRLASFGGMGTTSSLPSFVGSGNHNPAKHQLQNGYQGNGDYGSYAPAAPTTSSMGSSIRHSPLSSGISTPVTNVSPMHLQHIREQMAIALKRLKELEEQVRTIPVLQVKISVLQEEKRQLVSQLKNQRAASQINVCGVRKRSYSAGNASQLEQLSRARRSGGELYIDYEEEEMETVEQSTQRIKEFRQLTADMQALEQKIQDSSCEASSELRENGECRSVAVGAEENMNDIVVYHRGSRSCKDAAVGTLVEMRNCGVSVTEAMLGVMTEADKEIELQQQTIESLKEKIYRLEVQLRETTHDREMTKLKQELQAAGSRKKVDKATMAQPLVFSKVVEAVVQTRDQMVGSHMDLVDTCVGTSVETNSVGISCQPECKNKVVGPELPMNWWIVKERVEMHDRCAGRSVEMCDKSVSVEVSVCETGSNTEESVNDLTLLKTNLNLKEVRSIGCGDCSVDVTVCSPKECASRGVNTEAVSQVEAAVMAVPRTADQDTSTDLEQVHQFTNTETATLIESCTNTCLSTLDKQTSTQTVETRTVAVGEGRVKDINSSTKTRSIGVGTLLSGHSGFDRPSAVKTKESGVGQININDNYLVGLKMRTIACGPPQLTVGLTASRRSVGVGDDPVGESLENPQPQAPLGMMTGLDHYIERIQKLLAEQQTLLAENYSELAEAFGEPHSQMGSLNSQLISTLSSINSVMKSASTEELRNPDFQKTSLGKITGNYLGYTCKCGGLQSGSPLSSQTSQPEQEVGTSEGKPISSLDAFPTQEGTLSPVNLTDDQIAAGLYACTNNESTLKSIMKKKDGNKDSNGAKKNLQFVGINGGYETTSSDDSSSDESSSSESDDECDVIEYPLEEEEEEEDEDTRGMAEGHHAVNIEGLKSARVEDEMQVQECEPEKVEIRERYELSEKMLSACNLLKNTINDPKALTSKDMRFCLNTLQHEWFRVSSQKSAIPAMVGDYIAAFEAISPDVLRYVINLADGNGNTALHYSVSHSNFEIVKLLLDADVCNVDHQNKAGYTPIMLAALAAVEAEKDMRIVEELFGCGDVNAKASQAGQTALMLAVSHGRIDMVKGLLACGADVNIQDDEGSTALMCASEHGHVEIVKLLLAQPGCNGHLEDNDGSTALSIALEAGHKDIAVLLYAHVNFAKAQSPGTPRLGRKTSPGPTHRGSFD
chain 2: MVALSLKISIGNVVKTMQFEPSTMVYDACRMIRERIPEALAGPPNDFGLFLSDDDPKKGIWLEAGKALDYYMLRNGDTMEYRKKQRPLKIRMLDGTVKTIMVDDSKTVTDMLMTICARIGITNHDEYSLVRELMEEKKDEGTGTLRKDKTLLRDEKKMEKLKQKLHTDDELNWLDHGRTLREQGVEEHETLLLRRKFFYSDQNVDSRDPVQLNLLYVQARDDILNGSHPVSFDKACEFAGFQCQIQFGPHNEQKHKAGFLDLKDFLPKEYVKQKGERKIFQAHKNCGQMSEIEAKVRYVKLARSLKTYGVSFFLVKEKMKGKNKLVPRLLGITKECVMRVDEKTKEVIQEWSLTNIKRWAASPKSFTLDFGDYQDGYYSVQTTEGEQIAQLIAGYIDIILKKKKSKDHFGLEGDEESTMLEDSVSPKKSTVLQQQYNRVGKVEHGSVALPAIMRSGASGPENFQVGSMPPAQQQITSGQMHRGHMPPLTSAQQALTGTINSSMQAVQAAQATLDDFETLPPLGQDAASKAWRKNKMDESKHEIHSQVDAITAGTASVVNLTAGDPAETDYTAVGCAVTTISSNLTEMSRGVKLLAALLEDEGGNGRPLLQAAKGLAGAVSELLRSAQPASAEPRQNLLQAAGNVGQASGELLQQIGESDTDPHFQDVLMQLAKAVASAAAALVLKAKSVAQRTEDSGLQTQVIAAATQCALSTSQLVACTKVVAPTISSPVCQEQLVEAGRLVAKAVEGCVSASQAATEDGQLLRGVGAAATAVTQALNELLQHVKAHATGAGPAGRYDQATDTILTVTENIFSSMGDAGEMVRQARILAQATSDLVNAIKADAEGESDLENSRKLLSAAKILADATAKMVEAAKGAAAHPDSEEQQQRLREAAEGLRMATNAAAQNAIKKKLVQRLEHAAKQAAASATQTIAAAQHAASAPKASAGPQPLLVQSCKAVAEQIPLLVQGVRGSQAQPDSPSAQLALIAASQSFLQPGGKMVAAAKASVPTIQDQASAMQLSQCAKNLGTALAELRTAAQKAQEACGPLEMDSALSVVQNLEKDLQEIKAAARDGKLKPLPGETMEKCTQDLGNSTKAVSSAIAKLLGEIAQGNENYAGIAARDVAGGLRSLAQAARGVAALTSDPAVQAIVLDTASDVLDKASSLIEEAKKASGHPGDPESQQRLAQVAKAVTQALNRCVSCLPGQRDVDNALRAVGDASKRLLSDSLPPSTGTFQEAQSRLNEAAAGLNQAATELVQASRGTPQDLARASGRFGQDFSTFLEAGVEMAGQAPSQEDRAQVVSNLKGISMSSSKLLLAAKALSTDPASPNLKSQLAAAARAVTDSINQLITMCTQQAPGQKECDNALRQLETVRELLENPVQPINDMSYFGCLDSVMENSKVLGEAMTGISQNAKNGNLPEFGDAIATASKALCGFTEAAAQAAYLVGVSDPNSQAGQQGLVEPTQFARANQAIQMACQSLGEPGCTQAQVLSAATIVAKHTSALCNSCRLASARTANPTAKRQFVQSAKEVANSTANLVKTIKALDGDFTEENRAQCRAATAPLLEAVDNLSAFASNPEFSSVPAQISPEGRAAMEPIVISAKTMLESAGGLIQTARALAVNPRDPPRWSVLAGHSRTVSDSIKKLITSMRDKAPGQLECETAIAALNSCLRDLDQASLAAVSQQLAPREGISQEALHTQMLTAVQEISHLIEPLASAARAEASQLGHKVSQMAQYFEPLTLAAVGAASKTLSHPQQMALLDQTKTLAESALQLLYTAKEAGGNPKQAAHTQEALEEAVQMMTEAVEDLTTTLNEAASAAGVVGGMVDSITQAINQLDEGPMGDPEGSFVDYQTTMVRTAKAIAVTVQEMVTKSNTSPEELGPLANQLTSDYGRLASQAKPAAVAAENEEIGAHIKHRVQELGHGCSALVTKAGALQCSPSDVYTKKELIECARRVSEKVSHVLAALQAGNRGTQACITAASAVSGIIADLDTTIMFATAGTLNREGAETFADHREGILKTAKVLVEDTKVLVQNAAGSQEKLAQAAQSSVATITRLADVVKLGAASLGAEDPETQVVLINAVKDVAKALGDLISATKAAAGKVGDDPAVWQLKNSAKVMVTNVTSLLKTVKAVEDEATKGTRALEATTEHIRQELAVFCSPEPPAKTSTPEDFIRMTKGITMATAKAVAAGNSCRQEDVIATANLSRRAIADMLRACKEAAFHPEVAPDVRLRALHYGRECANGYLELLDHVLLTLQKPNPDLKQQLTGHSKRVAGSVTELIQAAEAMKGTEWVDPEDPTVIAENELLGAAAAIEAAAKKLEQLKPRAKPKEADESLNFEEQILEAAKSIAAATSALVKAASAAQRELVAQGKVGAIPANALDDGQWSQGLISAARMVAAATNNLCEAANAAVQGHASQEKLISSAKQVAASTAQLLVACKVKADQDSEAMKRLQAAGNAVKRASDNLVKAAQKAAAFEDQENETVVVKEKMVGGIAQIIAAQEEMLRKERELEEARKKLAQIRQQQYKFLPSELRDEH

Variants of: B1
Assay: mitochondria pulldown (MTS assay), Western blot quantification; HEK293T cells; triplicate experiments; read off a plot

Row | percent of parent | Variant
1 | ~2% | chain 1 V49E
